From publication doi:10.1101/2025.08.06.668955, “High-Affinity, Structure-Validated and Selective Macrocyclic Peptide Tools for Chemical Biology Studies of Huntingtin” (bioRxiv, 2025)
Where a SMILES comes first, the peptide text is derived from it. Bridges are numbered along the chain shown (N, C = ends). Primed or numbered codes have the meaning given here. Where no end group is shown, it is not given here. [ ]: non-standard residue; d: D form. The star is where a group is joined. FITC″ = fluorescein isothiocyanate; ClAc = O=C(CCl)*

How the values were obtained:
HTTQ23-HAP40 [1] = target: T1, HTTQ23-HAP40 (Homo sapiens, UniProt P23610+P42858, INS38QQ); assay: Thermal shift assay (DSF), HTTQ23-HAP40; format: binding; conditions: SYPRO Orange, 0.25 mg/mL protein, macrocycle up to 10 μM, 2.5% DMSO, n=3
T1 construct: Full-length wildtype HTT with a polyQ tract of 23 glutamines; FLAG; made in house; host or cells: Sf9 insect cells (baculovirus)
T1 sequence (P42858 with tags, fused parts or gaps INS38QQ, one chain of several): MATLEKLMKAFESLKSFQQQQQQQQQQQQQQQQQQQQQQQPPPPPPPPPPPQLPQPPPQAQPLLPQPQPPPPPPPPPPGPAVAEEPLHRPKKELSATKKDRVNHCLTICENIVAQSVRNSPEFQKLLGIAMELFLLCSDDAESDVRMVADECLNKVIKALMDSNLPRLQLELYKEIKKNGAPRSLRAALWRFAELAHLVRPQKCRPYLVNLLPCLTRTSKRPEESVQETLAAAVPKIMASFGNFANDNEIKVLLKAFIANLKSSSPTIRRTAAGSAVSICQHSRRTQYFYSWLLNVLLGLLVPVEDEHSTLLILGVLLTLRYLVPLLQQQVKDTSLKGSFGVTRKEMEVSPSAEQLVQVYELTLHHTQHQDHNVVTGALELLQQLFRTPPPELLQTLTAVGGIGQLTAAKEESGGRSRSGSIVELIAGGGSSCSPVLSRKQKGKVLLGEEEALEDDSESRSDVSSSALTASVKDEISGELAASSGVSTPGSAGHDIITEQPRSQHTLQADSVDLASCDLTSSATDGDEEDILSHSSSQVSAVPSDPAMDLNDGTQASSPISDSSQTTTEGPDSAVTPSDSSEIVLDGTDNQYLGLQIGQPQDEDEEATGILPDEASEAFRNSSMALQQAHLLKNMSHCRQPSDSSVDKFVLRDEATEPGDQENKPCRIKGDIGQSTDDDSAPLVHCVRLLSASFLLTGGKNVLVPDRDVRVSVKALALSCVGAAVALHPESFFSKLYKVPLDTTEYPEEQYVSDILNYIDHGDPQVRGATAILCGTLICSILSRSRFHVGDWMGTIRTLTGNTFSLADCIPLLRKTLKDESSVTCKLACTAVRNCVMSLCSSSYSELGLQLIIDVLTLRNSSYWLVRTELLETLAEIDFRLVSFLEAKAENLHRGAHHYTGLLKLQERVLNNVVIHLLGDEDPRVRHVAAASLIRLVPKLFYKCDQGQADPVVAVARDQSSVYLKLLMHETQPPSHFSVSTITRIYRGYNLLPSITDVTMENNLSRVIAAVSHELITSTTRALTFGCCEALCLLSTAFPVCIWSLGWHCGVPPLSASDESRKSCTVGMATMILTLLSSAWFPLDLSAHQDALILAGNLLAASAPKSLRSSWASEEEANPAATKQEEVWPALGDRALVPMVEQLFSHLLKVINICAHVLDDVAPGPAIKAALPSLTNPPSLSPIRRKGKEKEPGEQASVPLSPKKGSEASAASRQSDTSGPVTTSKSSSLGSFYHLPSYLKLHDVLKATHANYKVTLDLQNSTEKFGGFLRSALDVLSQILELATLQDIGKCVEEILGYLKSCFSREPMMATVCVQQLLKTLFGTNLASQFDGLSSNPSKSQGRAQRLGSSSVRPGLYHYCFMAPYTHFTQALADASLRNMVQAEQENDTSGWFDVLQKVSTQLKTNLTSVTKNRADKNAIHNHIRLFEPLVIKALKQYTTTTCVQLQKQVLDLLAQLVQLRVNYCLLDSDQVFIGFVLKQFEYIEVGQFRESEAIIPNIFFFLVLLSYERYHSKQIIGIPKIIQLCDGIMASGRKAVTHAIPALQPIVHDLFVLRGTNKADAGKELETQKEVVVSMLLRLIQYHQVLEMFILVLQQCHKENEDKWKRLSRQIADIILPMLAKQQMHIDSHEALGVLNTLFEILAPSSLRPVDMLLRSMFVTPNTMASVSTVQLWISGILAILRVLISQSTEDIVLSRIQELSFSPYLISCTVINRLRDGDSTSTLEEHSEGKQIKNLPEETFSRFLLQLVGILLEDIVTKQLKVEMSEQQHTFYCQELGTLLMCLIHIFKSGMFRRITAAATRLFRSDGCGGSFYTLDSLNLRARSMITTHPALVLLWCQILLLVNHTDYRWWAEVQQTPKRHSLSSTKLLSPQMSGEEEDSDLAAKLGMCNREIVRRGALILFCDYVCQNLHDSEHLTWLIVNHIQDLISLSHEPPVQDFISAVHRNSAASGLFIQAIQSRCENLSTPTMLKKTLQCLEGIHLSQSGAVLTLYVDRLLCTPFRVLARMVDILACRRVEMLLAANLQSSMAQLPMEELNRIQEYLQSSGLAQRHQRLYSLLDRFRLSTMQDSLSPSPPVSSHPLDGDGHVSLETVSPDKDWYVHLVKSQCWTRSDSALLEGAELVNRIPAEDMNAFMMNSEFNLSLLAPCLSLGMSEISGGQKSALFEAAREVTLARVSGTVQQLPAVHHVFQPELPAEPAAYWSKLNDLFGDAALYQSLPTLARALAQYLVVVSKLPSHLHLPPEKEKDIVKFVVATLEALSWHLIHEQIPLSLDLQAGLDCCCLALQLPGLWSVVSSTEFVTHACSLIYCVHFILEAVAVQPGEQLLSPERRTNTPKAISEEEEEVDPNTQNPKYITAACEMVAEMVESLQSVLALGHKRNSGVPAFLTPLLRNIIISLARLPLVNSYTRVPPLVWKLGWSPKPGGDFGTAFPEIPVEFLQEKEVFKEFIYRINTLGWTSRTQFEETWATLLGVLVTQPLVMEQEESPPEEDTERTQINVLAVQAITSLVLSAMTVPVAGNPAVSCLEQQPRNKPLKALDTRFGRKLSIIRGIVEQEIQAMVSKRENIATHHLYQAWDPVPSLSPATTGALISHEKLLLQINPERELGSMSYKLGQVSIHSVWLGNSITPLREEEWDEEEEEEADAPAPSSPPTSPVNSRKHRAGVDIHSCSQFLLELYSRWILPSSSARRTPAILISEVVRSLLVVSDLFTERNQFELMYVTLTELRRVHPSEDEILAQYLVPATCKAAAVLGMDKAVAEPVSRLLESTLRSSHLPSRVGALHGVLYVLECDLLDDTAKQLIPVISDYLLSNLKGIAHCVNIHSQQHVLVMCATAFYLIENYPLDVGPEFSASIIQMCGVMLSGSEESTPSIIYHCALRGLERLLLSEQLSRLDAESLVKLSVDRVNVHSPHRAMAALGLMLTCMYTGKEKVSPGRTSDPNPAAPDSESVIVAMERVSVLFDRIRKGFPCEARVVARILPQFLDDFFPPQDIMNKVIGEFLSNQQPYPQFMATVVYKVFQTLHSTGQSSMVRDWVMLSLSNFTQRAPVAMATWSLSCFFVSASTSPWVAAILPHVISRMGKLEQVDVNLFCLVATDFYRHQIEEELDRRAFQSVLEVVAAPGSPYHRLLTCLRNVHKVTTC
Description: In an Axygen® 384-well PCR microplate (REF# PCR-384-LC480-W-NF, Corning), samples were mixed to yield a final concentration of 0.25 mg/mL Q54 or Q23/HAP40, a 5-pt 2-fold serial dilution of each macrocycle (top concentration of 10 μM, 2.5% DMSO), and 5X SYPRO™ Orange (CAT# S6650, Thermo Fisher Scientific) in buffer (20 mM HEPES pH 7.4, 150 mM NaCl, 1 mM TCEP, 0.005% Tween-20). Differential Scanning Fluorimetry (DSF) was performed using a LightCycler® 480 (Roche LifeSciences) set to a 4 °C/min temperature ramp (20–95 °C) and fluorescence detection at 580 nm. Melting temperatures (Tm) were obtained from the minima of the negative derivative of each curve. The propagated error of the thermal shift (ΔTm) was calculated from the standard deviation of each Tm mean (n=3). To ensure a maximally macrocycle-bound fraction (KD ~10 nM; ~100% bound) at 0.25 mg/mL HTT or HTT-HAP40 (~0.7 μM), the upper limit of macrocycle tested was 10 μM.
98 Supplementary Figure. 10. Thermal shift (ΔTm) induced by macrocycle binding. Melting
99 temperature of HTTQ54 (left) with HL5 or HL2 minus HTTQ54 with DMSO (46.5 °C), and (right)
100 HTTQ23-HAP40 with HD4, HL2, HL5, HHD2, HHD3, or HHL1 minus HTTQ23-HAP40 with DMSO
101 (51.0 °C). ΔTm significance was determined using an unpaired t-test with Welch correction,
102 comparing to the mean Tm of Q54 or Q23-HAP40 with DMSO; *P < 0.05, **P < 0.01, ***P <
103 0.001. The summary table reports the ΔTm and exact P value at the highest concentration tested
(§1) (1 picture or pasted object on this page, not shown here)

HTT-HAP40 or HTT (HL5) = assay: FP displacement assay, FITC-labeled and unlabeled macrocycle pairs; format: binding; conditions: FITC-labeled HHL1 on HTT-HAP40; biological singlet in technical triplicate
Description: We further verified the specificity of binding of the macrocycles for HTT and HTT-HAP40 by displacement assay (Supplementary Figure 3) with FITC-labeled and unlabeled macrocycle pairs. All labelled macrocycles were displaced by their sequence-matched unlabeled macrocycle, with IC50 values in the nanomolar range.
57 Supplementary Figure 3. Displacement of fluorescently labeled macrocycles. a, Schematic for
58 assay. b, Each fluorescently labeled macrocycle is displaced by its unlabeled partner from HTT-
59 HAP40 or HTT (HL5) Conducted as a biological singlet in technical triplicate. c, Fluorescently
60 labeled HHL1 is displaced by itself and HHD3, but no other macrocycle.
as §1

HAP40 = assay: Macrocycle precipitation (MP), co-purification of HAP40, LC-MS/MS; format: binding, human; conditions: HEK293T lysate versus HTT CRISPR knockout line
Description: To assess macrocycle selectivity and identify potential HTT interacting proteins, we performed LC-MS/MS analysis of the proteins in the MP eluates. To control for non-specific binding, we performed MPs using lysates from a HTT CRISPR knockout cell line ([Jung et al., 2021]). Across all macrocycles, HTT emerged as the most enriched protein after background subtraction (Figure 5b). Given we performed affinity purification using macrocycles targeting distinct HTT surfaces, we hypothesized that any real HTT protein binder might be co-purified with two or more macrocycles. […] In contrast, HAP40 was not enriched by HL5, consistent with its specificity for apo HTT.
Macrocycles were pre-conjugated to streptavidin beads (Cytiva, 17-5113-01) by incubating with a 30 μL slurry of beads per macrocycle purification (MP) in Lysis Buffer (10 mM Tris-HCl, pH 7.9, 150 mM NaCl, 0.1% NP-40, 1:500 protease inhibitor cocktail (Sigma-Aldrich), 1:1,000 benzonase nuclease, and 2 mM MgCl2) for 1 hour at 4°C. A concentration of 1.25 μM macrocycle was used for conjugation. After incubation, beads were washed three times with 500 μL Lysis Buffer to remove unbound macrocycles and resuspended in 500 μL of lysate at 4 mg/mL protein concentration.
Cells were harvested by centrifugation at 1,500 rpm for 5 minutes, washed twice with PBS, and snap-frozen. Cell pellets were then resuspended in 500 μL of Lysis Buffer (as described above) and incubated on an end-over-end rotator at 4°C for 1 hour. Lysates were clarified by centrifugation at 20,000g for 15 minutes at 4°C, and the supernatant was transferred to fresh 1.5 mL Eppendorf tubes. Protein concentration was determined by BCA assay (Thermo Fisher Scientific, 23225), yielding approximately 4 mg of protein on average. Lysates were diluted to a final concentration of 4 mg/mL for use, providing […] of total protein per MP.
Macrocycle-conjugated beads were incubated with 2 mg of lysate in Lysis Buffer for 1 hour at 4°C with rotation. After incubation, beads were collected by centrifugation at 3,000 rpm, and the flow-through was saved for analysis. Beads were then washed sequentially with 1 mL of Wash Buffer 1 (10 mM Tris-HCl, pH 7.9, 100 mM NaCl, 0.1% NP-40) and twice with Wash Buffer 2 (Wash Buffer 1 without detergent). Lastly, bound proteins were eluted from the beads with 200 μL of 0.5 M NH4OH and flash-frozen in liquid nitrogen.
All sample preparation, LC MS/MS data collection, and MS data searches were carried out at the SPARC BioCentre at The Hospital for Sick Children (Toronto, ON, Canada). […] Samples were analyzed by liquid chromatography tandem mass spectrometry (LC-MS/MS) using an EASY-nanoLC 1200 system with a 1 h analysis and an Orbitrap Fusion™ Lumos™ Tribrid™ Mass Spectrometer (Thermo Fisher Scientific). […]

[2] = target: C-terminally biotinylated HTTQ23 in complex with HAP40 (UniProt P23610 1-371, biotin on the C-terminal Avi-tag); assay: SPR
Sequence of C-terminally biotinylated HTTQ23 in complex with HAP40 (P42858 other isoform, or with tags, fused parts or gaps, chain 1 of 2, one chain of several): as the sequence (P42858 with tags, fused parts or gaps INS38QQ, one chain of several) above, with Y2311H, V2788I counted along it

[3] = target: T2, 40-kDa huntingtin-associated protein (HAP40), chain of the HTT-HAP40 complex used for cryo-EM (UniProt P23610 1-371); assay: cryo-EM structure; HTT-HAP40 macrocycle complexes at 0.2 mg/ml in 25 mM HEPES pH 7.4, 150 mM NaCl, 0.025% CHAPS on graphene grids; Complex1 (HHL1, HL2, HD4) and Complex2 (HHD3, HL2, HD4); conditions: both partners purified
T2 construct: 40-kDa huntingtin-associated protein (HAP40); model built from PDB 6X90; The HAP40 chain of m26, for the pairs that touch in the structures
T2 sequence (looked up): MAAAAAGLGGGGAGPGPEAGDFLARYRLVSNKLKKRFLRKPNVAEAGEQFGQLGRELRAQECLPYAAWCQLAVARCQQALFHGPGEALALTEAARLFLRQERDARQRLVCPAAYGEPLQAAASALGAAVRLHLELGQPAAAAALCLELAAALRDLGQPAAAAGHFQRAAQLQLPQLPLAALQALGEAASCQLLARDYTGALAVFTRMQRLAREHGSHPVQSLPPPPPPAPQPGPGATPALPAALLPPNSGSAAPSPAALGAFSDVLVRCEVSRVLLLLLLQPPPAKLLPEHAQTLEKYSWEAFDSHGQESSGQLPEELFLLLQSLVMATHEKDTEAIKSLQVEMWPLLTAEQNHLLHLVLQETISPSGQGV

[4] = target: C-terminally biotinylated HTTQ23 (apo) (biotin on the C-terminal Avi-tag); assay: SPR
Sequence of C-terminally biotinylated HTTQ23 (apo) (biotin on the C-terminal Avi-tag) (P42858 other isoform, or with tags, fused parts or gaps): as the sequence (P42858 with tags, fused parts or gaps INS38QQ, one chain of several) above, with Y2311H, V2788I counted along it

HTTQ23-HAP40 [5] = target: HTTQ23-HAP40 (UniProt P23610 1-371); assay: FP
[6] = target: Full-length wildtype HTT with a polyQ tract of 23 glutamines, apo form (HTTQ23); assay: FP
Sequence of Full-length wildtype HTT with a polyQ tract of 23 glutamines, apo form (HTTQ23) (P42858 other isoform, or with tags, fused parts or gaps): as the sequence (P42858 with tags, fused parts or gaps INS38QQ, one chain of several) above, with Y2311H, V2788I counted along it

HTTQ54 (apo) = assay: FP

Question: How did the “Thermal shift (ΔTm) of HTTQ23-HAP40 induced by macrocycle” value (HTTQ23-HAP40 [1]) turn out when `CC[C@H](C)[C@@H]1NC(=O)[C@H](CC(C)C)NC(=O)[C@H](Cc2ccc(O)cc2)NC(=O)CSC[C@@H](C(N)=O)NC(=O)[C@@H]2CCCN2C(=O)[C@H](C(C)C)NC(=O)[C@H](CCC(=O)O)NC(=O)[C@H](C(C)C)NC(=O)[C@H](Cc2ccccc2)NC(=O)[C@H](C(C)C)NC(=O)[C@H](Cc2ccccc2)NC(=O)[C@H](Cc2c[nH]c3ccccc23)NC(=O)[C@H](CC(N)=O)NC(=O)[C@H](Cc2ccccc2)NC(=O)[C@H](CO)NC(=O)[C@H](CO)NC(=O)[C@H](CCCNC(=N)N)NC1=O` [HHL1] ({CH2CO}-YLIRSSFNWFVFVEVPC-NH2; thioether N-17; C-terminus assumed) was run?
Answer: stabilized

Question: And the “Displacement of fluorescently labeled HHL1 by unlabeled macrocycle” value (HTT-HAP40 or HTT (HL5))?
Answer: displaced

Question: For `CC[C@H](C)[C@@H]1NC(=O)[C@H](Cc2c[nH]c3ccccc23)NC(=O)[C@H](Cc2c[nH]c3ccccc23)NC(=O)[C@H](CC(N)=O)NC(=O)[C@H](CC(N)=O)NC(=O)[C@H](CCC(N)=O)NC(=O)[C@H](Cc2c[nH]c3ccccc23)NC(=O)[C@H](Cc2c[nH]cn2)NC(=O)[C@H](CCCNC(=N)N)NC(=O)[C@H]([C@@H](C)O)NC(=O)[C@@H](Cc2ccc(O)cc2)NC(=O)CSC[C@@H](C(N)=O)NC(=O)[C@H](Cc2ccccc2)NC(=O)[C@H](CCC(=O)O)NC(=O)[C@H](Cc2c[nH]cn2)NC(=O)[C@H](Cc2ccc(O)cc2)NC(=O)[C@H](CC(C)C)NC1=O` [HHD3] ({CH2CO}-[dY]TRHWQNNWWILYHEFC-NH2; thioether N-17; C-terminus assumed), which “Thermal shift (ΔTm) of HTTQ23-HAP40 induced by macrocycle” value (HTTQ23-HAP40 [1]) is on record?
Answer: stabilized

Question: And the “Enrichment of HAP40 in macrocycle pulldowns” value (HAP40)?
Answer: consistently enriched

Question: And the “Displacement of fluorescently labeled HHL1 by unlabeled macrocycle” value (HTT-HAP40 or HTT (HL5))?
Answer: displaced

B1: HHL1 (peptide)
peptide: {CH2CO}-YLIRSSFNWFVFVEVPC
modifications: thioether N-17 (inferred)
notes: macrocyclic peptide selected by RaPID on HTT-HAP40; also called macrocycle HHL1; source: synthetic peptide (Fmoc SPPS, RP-HPLC), without tags
Question: With B1 as the molecule, how does the Kd [2] read?
Answer: 7 nM

Question: Does B1 bind [3]?
Answer: binds

Question: {CH2CO}-YTHFQVAPWIQSLC (thioether N-14 (inferred)) [HL5] was tested. Which Kd [4] did it give?
Answer: 10 nM

B2: HD4 (peptide)
peptide: ClAc-[dY]DIWCETNKQTGILVLC
modifications: thioether (positions not given here); also: thioether to downstream Cys, which of Cys5/Cys17 not given here
Question: For B2, which Kd [2] is on record?
Answer: 2.1 nM

Question: And the Kd [4]?
Answer: 4.1 nM

B3: FITC-labeled HD4 (peptide)
peptide: ClAc-[dY]DIWCETNKQTGILVLC-{FITC″}
modifications: thioether (positions not given here); also: thioether to downstream Cys, which of Cys5/Cys17 not given here
Question: With B3 as the molecule, how does the Kd (HTTQ23-HAP40 [5]) read?
Answer: 1.6 nM

Question: What about the Kd [6] of the same molecule?
Answer: 7.3 nM

Question: What about the Kd (HTTQ54 (apo)) of the same molecule?
Answer: 1.5 nM

B4: HHD3 (peptide)
peptide: {CH2CO}-[dY]TRHWQNNWWILYHEFC
modifications: thioether N-17 (inferred)
notes: macrocyclic peptide selected by RaPID on HTT-HAP40; printed with a superscript D before the first Y (D-tyrosine); also called macrocycle HHD3; source: synthetic peptide (Fmoc SPPS, RP-HPLC), without tags
Question: Does B4 bind [3]?
Answer: binds
